From patent publication US20250333467A1 (TECTONIC OPERATING, published 2025) come the findings set out here.

The assay has as its target T1, human RXFP1 (human, UniProt Q9HBX9 1-757).
T1 sequence (looked up): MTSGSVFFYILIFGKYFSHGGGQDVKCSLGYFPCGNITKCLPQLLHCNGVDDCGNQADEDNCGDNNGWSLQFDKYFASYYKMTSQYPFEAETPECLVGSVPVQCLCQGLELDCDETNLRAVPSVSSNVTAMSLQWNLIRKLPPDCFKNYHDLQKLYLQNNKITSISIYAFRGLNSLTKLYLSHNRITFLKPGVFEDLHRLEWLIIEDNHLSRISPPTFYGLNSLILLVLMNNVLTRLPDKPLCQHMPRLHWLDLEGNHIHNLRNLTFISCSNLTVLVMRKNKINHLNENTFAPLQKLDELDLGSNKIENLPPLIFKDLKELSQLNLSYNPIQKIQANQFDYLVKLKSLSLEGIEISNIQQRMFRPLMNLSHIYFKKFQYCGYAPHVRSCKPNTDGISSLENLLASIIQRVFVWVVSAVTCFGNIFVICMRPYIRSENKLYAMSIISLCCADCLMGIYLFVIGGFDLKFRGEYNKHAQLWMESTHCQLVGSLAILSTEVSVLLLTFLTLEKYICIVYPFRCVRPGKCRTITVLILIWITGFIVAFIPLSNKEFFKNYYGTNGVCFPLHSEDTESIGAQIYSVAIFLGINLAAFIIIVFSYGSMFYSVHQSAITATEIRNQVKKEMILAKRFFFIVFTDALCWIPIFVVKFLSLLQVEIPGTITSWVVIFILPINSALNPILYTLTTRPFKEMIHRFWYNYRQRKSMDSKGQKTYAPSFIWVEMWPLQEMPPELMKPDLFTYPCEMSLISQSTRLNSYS
As to the kind of experiment: cell-based or functional assay.

B1: SEQ ID NO: 362 (Fc fusion)
chain: DKTHTCPPCPAPEAAGGPSVFLFPPKPKDTLMISRTPEVTCVVVDVSHEDPEVKFNWYVDGVEVHNAKTKPREEQYNSTYRVVSVLTVLHQDWLNGKEYKCKVSNKALAAPIEKTISKAKGQPREPQVYTLPPSRDELTKNQVSLTCLVKGFYPSDIAVEWESNGQPENNYKTTPPVLDSDGSFFLYSKLTVDKSRWQQGNVFSCSVLHEALHSHYTQKSLSLSPGKGGSDSWKEEVIKLCGRELVRAQIAICGKSTGGGEGGGEGGGEGGGQLYSALANKCCHVGCTKRSLARFC
Turning to B1, the “Potency (cAMP, transient hRXFP1 in HEK293)” value (“Potency” for short) was determined as 0.0123 µM.

B2: SEQ ID NO: 307 (Fc fusion)
chain: DKTHTCPPCPAPEAAGGPSVFLFPPKPKDTLMISRTPEVTCVVVDVSHEDPEVKFNWYVDGVEVHNAKTKPREEQYNSTYRVVSVLTVLHQDWLNGKEYKCKVSNKALAAPIEKTISKAKGQPREPQVYTLPPSRDELTKNQVSLTCLVKGFYPSDIAVEWESNGQPENNYKTTPPVLDSDGSFFLYSKLTVDKSRWQQGNVFSCSVLHEALHSHYTQKSLSLSPGKGGSDSWQEEVIKLCGRELVRAQIAICGKSTGGGEGGGEGGGEGGGQLYSALANKCCHVGCTKRSLARFC
Consider B2, for which the “Potency” value came out at 0.0158 µM.

B3: SEQ ID NO: 364 (Fc fusion)
chain: DKTHTCPPCPAPEAAGGPSVFLFPPKPKDTLMISRTPEVTCVVVDVSHEDPEVKFNWYVDGVEVHNAKTKPREEQYNSTYRVVSVLTVLHQDWLNGKEYKCKVSNKALAAPIEKTISKAKGQPREPQVYTLPPSRDELTKNQVSLTCLVKGFYPSDIAVEWESNGQPENNYKTTPPVLDSDGSFFLYSKLTVDKSRWQQGNVFSCSVLHEALHSHYTQKSLSLSPGKGGSDSWMEEVIKLCGRELVRAQIAICGKSTGGGEGGGEGGGEGGGQLYSALANKCCHVGCTKRSLARFC
Regarding B3, the “Potency” value was found to be 0.016 µM.

B4: SEQ ID NO: 369 (Fc fusion)
chain: DKTHTCPPCPAPEAAGGPSVFLFPPKPKDTLMISRTPEVTCVVVDVSHEDPEVKFNWYVDGVEVHNAKTKPREEQYNSTYRVVSVLTVLHQDWLNGKEYKCKVSNKALAAPIEKTISKAKGQPREPQVYTLPPSRDELTKNQVSLTCLVKGFYPSDIAVEWESNGQPENNYKTTPPVLDSDGSFFLYSKLTVDKSRWQQGNVFSCSVLHEALHSHYTQKSLSLSPGKGGSDSWKEEVIKLCGRELVRAQIAICGKSTASDAAGANANAGARQLYSALANKCCHVGCTKRSLAQFC
Take B4: the “Potency” value came out at 0.0005 µM.

B5: SEQ ID NO: 370 (Fc fusion)
chain: DKTHTCPPCPAPEAAGGPSVFLFPPKPKDTLMISRTPEVTCVVVDVSHEDPEVKFNWYVDGVEVHNAKTKPREEQYNSTYRVVSVLTVLHQDWLNGKEYKCKVSNKALAAPIEKTISKAKGQPREPQVYTLPPSRDELTKNQVSLTCLVKGFYPSDIAVEWESNGQPENNYKTTPPVLDSDGSFFLYSKLTVDKSRWQQGNVFSCSVLHEALHSHYTQKSLSLSPGKGGSDSWKEEVIKLCGRELVRAQIAICGKSTASDAAGANANAGARQLYSALANKCCHVGCTKRSLAEFC
On to B5, for which the “Potency” value was determined as 0.0018 µM.

B6: SEQ ID NO: 368 (Fc fusion)
chain: DKTHTCPPCPAPEAAGGPSVFLFPPKPKDTLMISRTPEVTCVVVDVSHEDPEVKFNWYVDGVEVHNAKTKPREEQYNSTYRVVSVLTVLHQDWLNGKEYKCKVSNKALAAPIEKTISKAKGQPREPQVYTLPPSRDELTKNQVSLTCLVKGFYPSDIAVEWESNGQPENNYKTTPPVLDSDGSFFLYSKLTVDKSRWQQGNVFSCSVLHEALHSHYTQKSLSLSPGGGSDSWQEEVIKLCGRELVRAQIAICGKSTGGEGGGEEGGGEGGQLYSALANKCCHVGCTKRSLARFC
As for B6, the “Potency” value stood at 0.101 µM.

B7: SEQ ID NO: 325 (Fc fusion)
chain: DKTHTCPPCPAPEAAGGPSVFLFPPKPKDTLMISRTPEVTCVVVDVSHEDPEVKFNWYVDGVEVHNAKTKPREEQYNSTYRVVSVLTVLHQDWLNGKEYKCKVSNKALAAPIEKTISKAKGQPREPQVYTLPPSRDELTKNQVSLTCLVKGFYPSDIAVEWESNGQPENNYKTTPPVLDSDGSFFLYSKLTVDKSRWQQGNVFSCSVLHEALHSHYTQKSLSLSPGGGSDSWQEEVIKLCGRELVRAQIAICGKSTGGGEEGGGEEGGGRQLYSALANKCCHVGCTKRSLAQFC
For B7, the “Potency” value turned out to be 0.0234 µM.

B8: SEQ ID NO: 315 (Fc fusion)
chain: DKTHTCPPCPAPEAAGGPSVFLFPPKPKDTLMISRTPEVTCVVVDVSHEDPEVKFNWYVDGVEVHNAKTKPREEQYNSTYRVVSVLTVLHQDWLNGKEYKCKVSNKALAAPIEKTISKAKGQPREPQVYTLPPSRDELTKNQVSLTCLVKGFYPSDIAVEWESNGQPENNYKTTPPVLDSDGSFFLYSKLTVDKSRWQQGNVFSCSVLHEALHSHYTQKSLSLSPGGGSDSWQEEVIKLCGRELVRAQIAICGKSTGGGEGGGEGGGEGRQLYSALANKCCHVGCTKRSLARFC
Consider B8, for which the “Potency” value was found to be 0.0033 µM.

B9: SEQ ID NO: 361 (Fc fusion)
chain: DKTHTCPPCPAPEAAGGPSVFLFPPKPKDTLMISRTPEVTCVVVDVSHEDPEVKFNWYVDGVEVHNAKTKPREEQYNSTYRVVSVLTVLHQDWLNGKEYKCKVSNKALAAPIEKTISKAKGQPREPQVYTLPPSRDELTKNQVSLTCLVKGFYPSDIAVEWESNGQPENNYKTTPPVLDSDGSFFLYSKLTVDKSRWQQGNVFSCSVLHEALHSHYTQKSLSLSPGKGGSDSWKEEVIKLCGRELVRAQIAICGKSTGGGEGGGEGGGEGRQLYSALANKCCHVGCTKRSLARFC
Turning to B9, the “Potency” value stood at 0.0025 µM.

B10: SEQ ID NO: 304 (Fc fusion)
chain: DKTHTCPPCPAPEAAGGPSVFLFPPKPKDTLMISRTPEVTCVVVDVSHEDPEVKFNWYVDGVEVHNAKTKPREEQYNSTYRVVSVLTVLHQDWLNGKEYKCKVSNKALAAPIEKTISKAKGQPREPQVYTLPPSRDELTKNQVSLTCLVKGFYPSDIAVEWESNGQPENNYKTTPPVLDSDGSFFLYSKLTVDKSRWQQGNVFSCSVLHEALHSHYTQKSLSLSPGKGGSDSWQEEVIKLCGRELVRAQIAICGKSTGGGEGGGEGGGEGRQLYSALANKCCHVGCTKRSLARFC
B10: the “Potency” value stood at 0.0025 µM.

B11: SEQ ID NO: 365 (Fc fusion)
chain: DKTHTCPPCPAPEAAGGPSVFLFPPKPKDTLMISRTPEVTCVVVDVSHEDPEVKFNWYVDGVEVHNAKTKPREEQYNSTYRVVSVLTVLHQDWLNGKEYKCKVSNKALAAPIEKTISKAKGQPREPQVYTLPPSRDELTKNQVSLTCLVKGFYPSDIAVEWESNGQPENNYKTTPPVLDSDGSFFLYSKLTVDKSRWQQGNVFSCSVLHEALHSHYTQKSLSLSPGKGGSDSWMEEVIKLCGRELVRAQIAICGKSTGGEGGGEEGGGEGGQLYSALANKCCHVGCTKRSLARFC
For B11, the “Potency” value is 0.0603 µM.

B12: SEQ ID NO: 366 (Fc fusion)
chain: DKTHTCPPCPAPEAAGGPSVFLFPPKPKDTLMISRTPEVTCVVVDVSHEDPEVKFNWYVDGVEVHNAKTKPREEQYNSTYRVVSVLTVLHQDWLNGKEYKCKVSNKALAAPIEKTISKAKGQPREPQVYTLPPSRDELTKNQVSLTCLVKGFYPSDIAVEWESNGQPENNYKTTPPVLDSDGSFFLYSKLTVDKSRWQQGNVFSCSVLHEALHSHYTQKSLSLSPGKGGSDSWQEEVIKLCGRELVRAQIAICGKSTGGEGGGEEGGGEGGQLYSALANKCCHVGCTKRSLARFC
As for B12, the “Potency” value stood at 0.0628 µM.

B13: SEQ ID NO: 363 (Fc fusion)
chain: DKTHTCPPCPAPEAAGGPSVFLFPPKPKDTLMISRTPEVTCVVVDVSHEDPEVKFNWYVDGVEVHNAKTKPREEQYNSTYRVVSVLTVLHQDWLNGKEYKCKVSNKALAAPIEKTISKAKGQPREPQVYTLPPSRDELTKNQVSLTCLVKGFYPSDIAVEWESNGQPENNYKTTPPVLDSDGSFFLYSKLTVDKSRWQQGNVFSCSVLHEALHSHYTQKSLSLSPGKGGSDSWMEEVIKLCGRELVRAQIAICGKSTGGGEGGGEGGGEGRQLYSALANKCCHVGCTKRSLARFC
On to B13, for which the “Potency” value stood at 0.0029 µM.

B14: SEQ ID NO: 319 (Fc fusion)
chain: DKTHTCPPCPAPEAAGGPSVFLFPPKPKDTLMISRTPEVTCVVVDVSHEDPEVKFNWYVDGVEVHNAKTKPREEQYNSTYRVVSVLTVLHQDWLNGKEYKCKVSNKALAAPIEKTISKAKGQPREPQVYTLPPSRDELTKNQVSLTCLVKGFYPSDIAVEWESNGQPENNYKTTPPVLDSDGSFFLYSKLTVDKSRWQQGNVFSCSVLHEALHSHYTQKSLSLSPGKGGSDSWQEEVIKLCGRELVRAQIAICGKSTGGGEEGGGEEGGGRQLYSALANKCCHVGCTKRSLARFC
Take B14: the “Potency” value was 0.0058 µM.

B15: SEQ ID NO: 321 (Fc fusion)
chain: DKTHTCPPCPAPEAAGGPSVFLFPPKPKDTLMISRTPEVTCVVVDVSHEDPEVKFNWYVDGVEVHNAKTKPREEQYNSTYRVVSVLTVLHQDWLNGKEYKCKVSNKALAAPIEKTISKAKGQPREPQVYTLPPSRDELTKNQVSLTCLVKGFYPSDIAVEWESNGQPENNYKTTPPVLDSDGSFFLYSKLTVDKSRWQQGNVFSCSVLHEALHSHYTQKSLSLSPGKGGSDSWQEEVIKLCGRELVRAQIAICGKSTGGGEEGGGEEGGGRQLYSALANKCCHVGCTKRSLAQFC
Turning to B15, the “Potency” value turned out to be 0.0102 µM.
